The values that follow come from patent US20160115200A1, “New Use for JNK Inhibitor Molecules for Treatment of Various Diseases” (XIGEN INFLAMMATION LTD., priority 2013, published 2016).

Holding throughout (assay): kinase inhibition
In test [1] the target is His-JNK2 (ref 14-329, Upstate) (UniProt P45984).
The target in test [2] is His-JNK3 (ref 14-501, Upstate) (UniProt P53779).
Test [3] concerns the target His-JNK1 (ref 14-327, Upstate) (UniProt P45983).

Sequence of His-JNK3 (ref 14-501, Upstate) (P53779 other isoform, or with tags, fused parts or gaps): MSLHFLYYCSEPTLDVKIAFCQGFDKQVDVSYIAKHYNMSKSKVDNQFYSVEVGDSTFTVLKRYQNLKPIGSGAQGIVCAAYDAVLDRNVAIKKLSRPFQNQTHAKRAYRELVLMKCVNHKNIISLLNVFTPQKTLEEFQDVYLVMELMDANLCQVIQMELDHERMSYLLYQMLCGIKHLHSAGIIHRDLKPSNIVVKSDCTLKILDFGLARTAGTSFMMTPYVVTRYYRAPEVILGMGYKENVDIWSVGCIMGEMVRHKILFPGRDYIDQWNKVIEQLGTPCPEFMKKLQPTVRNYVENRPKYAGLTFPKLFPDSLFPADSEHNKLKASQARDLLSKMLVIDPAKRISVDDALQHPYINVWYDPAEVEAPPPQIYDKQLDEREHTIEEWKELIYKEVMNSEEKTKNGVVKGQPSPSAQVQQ
Sequence of His-JNK1 (ref 14-327, Upstate) (P45983 other isoform, or with tags, fused parts or gaps): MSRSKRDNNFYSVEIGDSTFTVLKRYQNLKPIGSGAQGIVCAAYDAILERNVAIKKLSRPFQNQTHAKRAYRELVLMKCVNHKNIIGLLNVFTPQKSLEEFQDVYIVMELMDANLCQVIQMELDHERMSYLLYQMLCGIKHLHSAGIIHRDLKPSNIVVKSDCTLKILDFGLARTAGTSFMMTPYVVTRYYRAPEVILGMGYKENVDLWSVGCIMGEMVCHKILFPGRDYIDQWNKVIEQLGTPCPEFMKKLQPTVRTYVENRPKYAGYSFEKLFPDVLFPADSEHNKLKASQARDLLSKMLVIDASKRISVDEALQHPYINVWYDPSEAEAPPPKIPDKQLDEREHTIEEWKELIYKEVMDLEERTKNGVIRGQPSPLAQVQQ

Regarding D-TAT-IB1, the IC50 in test [1] was determined as 802 nM; in test [2], 1290 nM; in test [3] it was 24400 nM.

For orientation: IC50 means the concentration that inhibits the measured activity by half.
